Our source for the Kd values is publication PMC12328585 (Nature Communications, 2025).

B1: non-tagged Net4ΔC (gift from the Koch lab) (domain or fragment, mouse)
chain: CEKACNPRMGNLALGRKLRADTMCGQNATELFCFYSENADLTCRQPKCDKCNAAHSHLAHPPSAMADSSFRFPRTWWQSAEDVHREKIQLDLEAEFYFTHLIMVFKSPRPAAMVLDRSQDFGKTWKPYKYFATNCSATFGLEDDVVKKGAICTSRYSNPFPCTGGEVIFRALSPPYDIENPYSAKVQEQLKITNLRVRLLKRQSCPCQINDLNAKPHHFMHYAVYDFIVKGSCFCNGHADQCLPVEGFRPIKAPGAFHVVHGRCMCKHNTAGSHCQHCAPLYNDRPWEAADGRTGAPNECRTCKCNGHADTCHFDVNVWEASGNRSGGVCNNCQHNTEGQHCQRCKPGFYRDLRRPFSAPDACKACSCHPVGSAILPFSSVTFCDPSNGDCPCKPGVAGPHCDRCMVGYWGFGDYGCRPCDCAGSCDPLTGDC

Assay in all cases: ELISA
A general note: In an ELISA, binding on a coated surface is turned into a signal by an enzyme label.

Test [1] has as its target non-tagged Net4ΔC (gift from the Koch lab) (mouse) (UniProt Q9JI33).
Test [2] has as its target recombinant mouse laminin 111 (Lm111) (mouse, UniProt P19137 25-3083; P02469 22-1786; P02468 34-1607).
The target in test [3] is B1.

One may read the Kd as the free concentration of one partner at which half of the binding sites on the other are occupied at equilibrium, for simple one-to-one binding. In the case of “γ1ΔC D285R (from UniProt P11047 37-341) (domain or fragment)”, in test [1], the dissociation constant Kd came out at 1.57 nM.
Take B1: the dissociation constant Kd in test [2] worked out at 0.39 ± 0.07 nM.

B2: γ1ΔC D266R (domain or fragment)
chain: QAAMDECTDEGGRPQRCMPEFVNAAFNVTVVATNTCGTPPEEYCVQTGVTGVTKSCHLCDAGQPHLQHGAAFLTDYNNQADTTWWQSQTMLAGVQYPSSINLTLHLGKAFDITYVRLKFHTSRPESFAIYKRTREDGPWIPYQYYSGSCENTYSKANRGFIRTGGDEQQALCTDEFSDISPLTGGNVAFSTLEGRPSAYNFDNSPVLQEWVTATDIRVTLNRLNTFGDEVFNRPKVLKSYYYAISDFAVGGRCKCNGHASECMKNEFDKLVCNCKHNTYGVDCEKCLPFFNDRPWRRATAESASECLP
Molecule B2 came in with a Kd in test [3] of 4 ± 0.4 nM.

B3: γ1ΔC Y147R (domain or fragment)
chain: QAAMDECTDEGGRPQRCMPEFVNAAFNVTVVATNTCGTPPEEYCVQTGVTGVTKSCHLCDAGQPHLQHGAAFLTDYNNQADTTWWQSQTMLAGVQYPSSINLTLHLGKAFDITRVRLKFHTSRPESFAIYKRTREDGPWIPYQYYSGSCENTYSKANRGFIRTGGDEQQALCTDEFSDISPLTGGNVAFSTLEGRPSAYNFDNSPVLQEWVTATDIRVTLNRLNTFGDEVFNDPKVLKSYYYAISDFAVGGRCKCNGHASECMKNEFDKLVCNCKHNTYGVDCEKCLPFFNDRPWRRATAESASECLP
In turn, B3 came in with a Kd in test [3] of 2.28 ± 0.43 nM.

B4: γ1ΔC R149E (domain or fragment)
chain: QAAMDECTDEGGRPQRCMPEFVNAAFNVTVVATNTCGTPPEEYCVQTGVTGVTKSCHLCDAGQPHLQHGAAFLTDYNNQADTTWWQSQTMLAGVQYPSSINLTLHLGKAFDITYVELKFHTSRPESFAIYKRTREDGPWIPYQYYSGSCENTYSKANRGFIRTGGDEQQALCTDEFSDISPLTGGNVAFSTLEGRPSAYNFDNSPVLQEWVTATDIRVTLNRLNTFGDEVFNDPKVLKSYYYAISDFAVGGRCKCNGHASECMKNEFDKLVCNCKHNTYGVDCEKCLPFFNDRPWRRATAESASECLP
In turn, B4 registered a Kd in test [3] of 1.89 ± 0.2 nM.

B5: γ1ΔC (N-terminal fragment of laminin γ1), human, C-terminally flag-tagged (domain or fragment)
chain: QAAMDECTDEGGRPQRCMPEFVNAAFNVTVVATNTCGTPPEEYCVQTGVTGVTKSCHLCDAGQPHLQHGAAFLTDYNNQADTTWWQSQTMLAGVQYPSSINLTLHLGKAFDITYVRLKFHTSRPESFAIYKRTWEDGPWIPYQYYSGSCENTYSKANRGFIRTGGDEQQALCTDEFSDISPLTGGNVAFSTLEGRPSAYNFDNSPVLQEWVTATDISVTLNRLNTFGDEVFNDPKVLKSYYYAISDFAVGGRCKCNGHASECMKNEFDKLVCNCKHNTYGVDCEKCLPFFNDRPWRRATAESASECLPCDCNGRSQECYFDPELYRSTGHGGHCTNCQDNTDGAHCERCRENFFRLGNNEACSSCHCSPVGSLSTQCDSYGRCSCKPGVMGDKCDRCQPGFHSLTEAGCRPCSCDPSGSIDECNIETGRCVCKDNVEGFNCERCKPGFFNLESSNPRGCTP
modifications: N-glycans at N60 and N134
B5 returned a Kd in test [3] of 2.93 ± 0.51 nM.
